Measurements taken from patent US6635751B1, “Isolated nucleic acids encoding activated and suppressive forms of ATF6” (HSP Research Institute, Inc., priority 1998, dated 2003).
Substitutions are numbered along the chain they refer to.

What was measured:
[1] = system: human GRP78 promoter; assay: Overexpression of pCGN-ATF6 deletion mutants with reporter pGL3-G78(-132) in HeLa cells, ERSE-mediated transcription; type: cell-based; conditions: for transcription of the luciferase gene from the GRP78 promoter having ERSE: absence of endoplasmic reticulum stress (without TM)
Procedure: HeLa cells in a 24-well plate were transiently transfected with a reporter plasmid pGL-G78(−132) capable of expressing firefly luciferase gene under the control of human GRP78 promoter, together with pCGN vector alone (Vec) or each of ATF6 expression plasmids. Transfected cells were treated with (closed bars) or without (open bars) 2 μg/ml tunicamycin (TM) for 16 hours prior to measuring luciferase activity. The relative activities are indicated as the mean±standard deviations (bars) from four independent experiments (triplicate determinations).
Using HeLa cells co-transfected with the reporter plasmid pGL3-G78(−132) [see Example 1 (FIG. 6, line 2)] resulting from ligation of the firefly luciferase gene to downstream of the human GRP78 promoter ([−132 to +7], numbered on the basis of the translation initiation point taken as +1) and the expression plasmid for the ATF6 C-terminal deletion mutant of Example 10, the effects of each of the overexpressed C-terminal deletion mutants of ATF6 on ERSE-mediated transcriptional activation were evaluated.
Next, in the same manner as in Example 13, the effect of the overexpression of each ATF6 transcription-activating domain deletion mutant on ERSE-mediated transcriptional activation was evaluated by co-transfection with the reporter plasmid pGL3-G78(−132).

[2] = system: GRP78 promoter; assay: Co-transfection of pcDNA3.1 effector plasmid (full-length ATF6 or CREB-RP) with GRP78 promoter luciferase reporter in HeLa cells; type: cell-based, human
Procedure: 100 ng of an effector plasmid carrying a full-length ATF6 cDNA or plasmid vector alone was cotransfected into HeLa cells with 1 μg of a reporter plasmid containing luciferase gene fused with intact or mutant GRP promoters. The mutant promoter constructs used correspond to those of FIG. 6. Closed bars and open bars indicated cells treated with or without 2 μg/ml tunicamycin (in the figure, referred to as “TM”) for 16 hours, respectively. Experiments were repeated four times.
An effector plasmid carrying a full-length CREB-RP gene was cotransfected into HeLa cells harboring a reporter plasmid in the same manner as in FIG. 14. Experiments were repeated four times. In the figure, TM indicates tunicamycin.
An entire cDNA was inserted into the HindIII-XhoI sites or BamHI-EcoRI sites immediately downstream of the CMV promoter of pcDNA3.1(+) vector (manufactured by Invitrogen) to construct an effector plasmid for expressing ATF6 or CREB-RP, respectively.
In order to examine whether or not ATF6 is involved in the transcriptional regulation of the GRP gene in mammalian cells, HeLa cells were co-transfected with an effector plasmid carrying a full-length ATF6 cDNA and a reporter plasmid resulting from ligation of the firefly luciferase gene to downstream of the intact GRP promoter or a mutant GRP promoter, and GRP promoter activity was evaluated from the luciferase activity.
Therefore, with these findings in mind, a test was carried out to determine whether or not CREB-RP overexpression affects the activity of the GRP promoter.

[3] = presence of TM (2 μg/ml, 16 hours)

B1: ATF6(402): HA-tagged ATF6 amino acids 1st to 402nd; retains the transmembrane domain (protein, UniProt P18850 1-402, looked up, fragment)
chain: MGEPAGVAGTMESPFSPGLFHRLDEDWDSALFAELGYFTDTDELQLEAANETYENNFDNLDFDLDLMPWESDIWDINNQICTVKDIKAEPQPLSPASSSYSVSSPRSVDSYSSTQHVPEELDLSSSSQMSPLSLYGENSNSLSSAEPLKEDKPVTGPRNKTENGLTPKKKIQVNSKPSIQPKPLLLPAAPKTQTNSSVPAKTIIIQTVPTLMPLAKQQPIISLQPAPTKGQTVLLSQPTVVQLQAPGVLPSAQPVLAVAGGVTQLPNHVVNVVPAPSANSPVNGKLSVTKPVLQSTMRNVGSDIAVLRRQQRMIKNRESACQSRKKKKEYMLGLEARLKAALSENEQLKKENGTLKRQLDEVVSENQRLKVPSPKRRVVCVMIVLAFIILNYGPMSMLEQDS
modifications: HA tag
notes: HA-tagged ATF6 amino acids 1st to 402nd; retains the transmembrane domain
transcription of the luciferase gene from the GRP78 promoter having ERSE [1]: constitutively enhanced

B2: ATF6: full-length ATF6, 670 amino acids (SEQ ID NO: 32), bZIP transcription factor expressed from pcDNA3.1(+) effector plasmid (protein, listed as Homo sapiens)
chain: MGEPAGVAGTMESPFSPGLFHRLDEDWDSALFAELGYFTDTDELQLEAANETYENNFDNLDFDLDLMPWESDIWDINNQICTVKDIKAEPQPLSPASSSYSVSSPRSVDSYSSTQHVPEELDLSSSSQMSPLSLYGENSNSLSSPEPLKEDKPVTGSRNKTENGLTPKKKIQVNSKPSIQPKPLLLPAAPKTQTNSSVPAKTIIIQTVPTLMPLAKQQPIISLQPAPTKGQTVLLSQPTVVQLQAPGVLPSAQPVLAVAGGVTQLPNHVVNVVPAPSANSPVNGKLSVTKPVLQSTMRNVGSDIAVLRRQQRMIKNRESACQSRKKKKEYMLGLEARLKAALSENEQLKKENGTLKRQLDEVVSENQRLKVPSPKRRVVCVMIVLAFIILNYGPMSMLEQDSRRMNPSVSPANQRRHLLGFSAKEAQDTSDGIIQKNSYRYDHSVSNDKALMVLTEEPLLYIPPPPCQPLINTTESLRLNHELRGWVHRHEVERTKSRRMTNNQQKTRILQGALEQGSNSQLMAVQYTETTSSISRNSGSELQVYYASPRSYQDFFEAIRRRGDTFYVVSFRRDHLLLPATTHNKTTRPKMSIVLPAININENVINGQDYEVMMQIDCQVMDTRILHIKSSSVPPYLRDQQRNQTNTFFGSPPAATEATHVVSTIPESLQ
increase of luciferase expression from GRP78 promoter having intact ERSE sequences over control vector ([2]; absence of TM, 100 ng effector plasmid): 5 fold | effect on expression from mutant GRP78 promoter lacking all three ERSE sequences [2]: not affected | effect on reporter expression from intact GRP78 promoter [2, 3]: further increased

B3: ATF(670): full-length ATF6 with HA epitope at N-terminus, expressed from pCGN-ATF6(670) (protein, UniProt P18850 1-670, looked up)
chain: B2 chain with P145A, S157P
modifications: full-length N-terminal HA tag
transcription of the luciferase gene from the GRP78 promoter having ERSE [1]: constitutively activated

B4: CREB-RP: full-length CREB-RP (SEQ ID NO: 34) expressed from pcDNA3.1(+) effector plasmid (protein, listed as Homo sapiens)
chain: MAELMLLSEIADPTRFFTDNLLSPEDWDSTLYSGLDEVAEEQTQLFRCPEQDVPFDGSSLDVGMDVSPSEPPWELLPIFPDLQVKSEPSSPCSSSSLSSESSRLSTEPSSEALGVGEVLHVKTESLAPPLCLLGDDPTSSFETVQINVIPTSDDSSDVQTKIEPVSPCSSVNSEASLLSADSSSQAFIGEEVLEVKTESLSPSGCLLWDVPAPSLGAVQISMGPSLDGSSGKALPTRKPPLQPKPVVLTTVPMPSRAVPPSTTVLLQSLVQPPPVSPVVLIQGAIRVQPEGPAPSLPRPERKSIVPAPMPGNSCPPEVDAKLLKRQQRMIKNRESACQSRRKKKEYLQGLEARLQAVLADNQQLRRENAALRRRLEALLAENSELKLGSGNRKVVCIMVFLLFIAFNFGPVSISEPPSAPISPRMNKGEPQPRRHLLGFSEQEPVQGVEPLQGSSQGPKEPQPSPTDQPSFSNLTAFPGGAKELLLRDLDQLFLSSDCRHFNRTESLRLADELSGWVQRHQRGRRKIPQRAQERQKSQPRKKSPPVKAVPIQPPGPPERDSVGQLQLYRHPDRSQPAFLDAIDRREDTFYVVSFRRGHLLLPAISHNKTSRPKMSLVMPAMAPNETLSGRGAPGDYEEMMQIECEVMDTRVIHIKTSTVPPSLRKQPSPTPGNATGGPLPVSAASQAHQASHQPLYLNHP
effect on reporter expression from intact GRP78 promoter ([2]; absence of TM): hardly affected | effect on expression from mutant GRP78 promoter lacking all three ERSE sequences [2]: did not affect | effect on reporter expression from intact GRP78 promoter [2, 3]: markedly suppressed

B5: ATF6(151-373): ATF6 amino acids 151st to 373rd, transcription-activating domain deletion mutant (protein, UniProt P18850 151-373, looked up, fragment)
chain: DKPVTGPRNKTENGLTPKKKIQVNSKPSIQPKPLLLPAAPKTQTNSSVPAKTIIIQTVPTLMPLAKQQPIISLQPAPTKGQTVLLSQPTVVQLQAPGVLPSAQPVLAVAGGVTQLPNHVVNVVPAPSANSPVNGKLSVTKPVLQSTMRNVGSDIAVLRRQQRMIKNRESACQSRKKKKEYMLGLEARLKAALSENEQLKKENGTLKRQLDEVVSENQRLKVPS
action on endogenous p50ATF6 in the nucleus [1]: act dominant-negatively

B6: ATF6(151-330): ATF6 amino acids 151st to 330th, transcription-activating domain deletion mutant (protein, UniProt P18850 151-330, looked up, fragment)
chain: DKPVTGPRNKTENGLTPKKKIQVNSKPSIQPKPLLLPAAPKTQTNSSVPAKTIIIQTVPTLMPLAKQQPIISLQPAPTKGQTVLLSQPTVVQLQAPGVLPSAQPVLAVAGGVTQLPNHVVNVVPAPSANSPVNGKLSVTKPVLQSTMRNVGSDIAVLRRQQRMIKNRESACQSRKKKKEY
action on endogenous p50ATF6 in the nucleus [1]: act dominant-negatively

B7: ATF6(151-366): ATF6 amino acids 151st to 366th, transcription-activating domain deletion mutant (protein, UniProt P18850 151-366, looked up, fragment)
chain: DKPVTGPRNKTENGLTPKKKIQVNSKPSIQPKPLLLPAAPKTQTNSSVPAKTIIIQTVPTLMPLAKQQPIISLQPAPTKGQTVLLSQPTVVQLQAPGVLPSAQPVLAVAGGVTQLPNHVVNVVPAPSANSPVNGKLSVTKPVLQSTMRNVGSDIAVLRRQQRMIKNRESACQSRKKKKEYMLGLEARLKAALSENEQLKKENGTLKRQLDEVVSEN
action on endogenous p50ATF6 in the nucleus [1]: act dominant-negatively

B8: ATF6(330): HA-tagged ATF6 amino acids 1st to 330th; lacks the leucine zipper region (protein, UniProt P18850 1-330, looked up, fragment)
chain: MGEPAGVAGTMESPFSPGLFHRLDEDWDSALFAELGYFTDTDELQLEAANETYENNFDNLDFDLDLMPWESDIWDINNQICTVKDIKAEPQPLSPASSSYSVSSPRSVDSYSSTQHVPEELDLSSSSQMSPLSLYGENSNSLSSAEPLKEDKPVTGPRNKTENGLTPKKKIQVNSKPSIQPKPLLLPAAPKTQTNSSVPAKTIIIQTVPTLMPLAKQQPIISLQPAPTKGQTVLLSQPTVVQLQAPGVLPSAQPVLAVAGGVTQLPNHVVNVVPAPSANSPVNGKLSVTKPVLQSTMRNVGSDIAVLRRQQRMIKNRESACQSRKKKKEY
modifications: HA tag
notes: HA-tagged ATF6 amino acids 1st to 330th; lacks the leucine zipper region
activity compared with ATF6(373) or ATF(366) ([1]; nearly the same expression level): markedly lower activity
